{
  "source": "patent US20050049403A1",
  "about": "(CAMBRIDGE ANTIBODY TECHNOLOGY, published 2005)",
  "binders": {"B1": {"name": "6B1 IgG4 (antibody, V domains shown)", "VH": "EVQLVESGGGVVQPGRSLRLSCAASGFTFSSYGMHWVRQAPGKGLEWVAVIWYDGSNKYYADSVKGRFTISRDNSKNTLYLQMDSLRAEDTAVYYCGRTLESSLWGQGTLVTVSS", "VL": "SSELTQDPAVSVALGQTVRITCQGDSLRSYYASWYQQKPGQAPVLVIYGKNNRPSGIPDRFSGSSSGNTASLTITGAQAEDEADYYCNSRDSSSTHRGVFGGGTKLTVLG", "notes": "Whole antibody: human gamma 4 and human lambda constant regions; FITC-labelled in the human tissue study; also called antibody 6B1"}},
  "key": {"[1]": {"molecular_target": "T1, recombinant human TGFβ2 (human, UniProt P61812 303-414)", "T1 sequence (looked up)": "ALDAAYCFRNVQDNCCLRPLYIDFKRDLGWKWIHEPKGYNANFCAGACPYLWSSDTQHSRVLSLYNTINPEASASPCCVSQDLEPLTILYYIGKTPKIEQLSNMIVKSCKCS", "assay": "cell-based or functional assay"}, "[2]": {"molecular_target": "T2, recombinant human TGFβ1 (human, UniProt P01137 279-390)", "T2 sequence (P01137 279-390 limits assumed)": "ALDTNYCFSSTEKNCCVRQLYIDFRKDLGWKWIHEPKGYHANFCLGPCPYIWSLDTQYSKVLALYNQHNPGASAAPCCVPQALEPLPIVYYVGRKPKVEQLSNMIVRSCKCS", "assay": "cell-based or functional assay"}, "[3]": {"molecular_target": "T1, recombinant human TGFβ2", "assay": "cell-based or functional assay", "remark": "listed apart in the source"}, "[4]": {"molecular_target": "T1, recombinant human TGFβ2", "assay": "BIAcore 2000, antigen immobilised, antibody as analyte", "protocol": "The immobilisation of ligand is automated by the BIACore 2000 machine, and all steps are carried out in the autosampler or in the flowcell, on the dextran surface of the chip. The buffer used throughout the immobilisation procedure, and the analysis of samples is Hepes-buffered saline (HBS) with a surfactant (Pharmacia Biosensor). The chips (Pharmacia, CM5), have dextran coating on a thin layer of gold. NHS at 100 mM and EDC at 400 mM are mixed by the autosampler, and then a fixed volume is injected over the flowcell surface. This is followed by an injection of antigen in a suitable buffer. In the case of TGFβ, a surface of the correct density was given by using 25-30 μg/ml solution of TGFβ2 (AMS) OR TGFβ3 (R & D systems) in 10 mM acetate. After injection of the ligand, the chip is blocked using 1M ethanolamine. The total amount of TGFβ bound was assessed from the total increase in resonance units over this period.\nTo determine the kinetic parameters, a series of dilutions of the antibody samples was made in HBS from about 500 μg/ml down to less than 1 μg/ml, usually through doubling dilutions. After the antibody has been injected over the antigen surface, the surface is washed with HBS, then regenerated by stripping off the bound antibody with a pulse of 100 mM HCl. At the higher concentrations of antibody the antigen on the chip surface is saturated, and the off rate is determined on washing with buffer in the dissociation phase. For determination of the on-rate, lower concentrations of antibody are used, giving a linear binding phase in the sensorgram, allowing kₒₙ determination.\n6B1 IgG4 was purified from the GS/NS0 cell line of Example 10 as in Example 2. 6B1 single chain Fv was expressed intracellularly in E. coli, refolded in vitro (using the methodology of WO94/18227), and purified to give a homogeneous product. The values of kₒₙ and koff were determined for 6B1 IgG4 for binding to both TGFβ2 and TGFβ3, and for the single-chain Fv 6B1 for binding to TGFβ2. The dissociation constant was calculated by dividing koff by kₒₙ."}, "[5]": {"molecular_target": "irrelevant peptide …", "assay": "BIACore, peptide at 745 µM (1 mg/ml) over immobilised 6B1 IgG4 (5000RU)"}, "[6]": {"molecular_target": "T2, recombinant human TGFβ1", "assay": "A549 cell radioreceptor assay (nM IgG); A549 cell radioreceptor assay; no inhibition up to 400 nM IgG", "protocol": "Aliqouts of ¹²⁵I-TGFβ1 or TGFβ2 (70-90 TBq/mmol; Amersham International) at 20 pM are preincubated with antibody in binding medium at room temperature for 1 h. Duplicate samples of 0.5 ml of TGFβ/antibody mixtures are then added to the cell monlayers and are incubated at 37° C. for 1-2 h. Control wells contain TGFβ only. Unbound TGFβ is removed by washing 4 times with Hank's balanced salt solution containing 0.1% BSA. Cells are solubilised in 0.8 ml 25 mM Tris HCl pH 7.5, 10% glycerol, 1% Triton X-100 at room temperature for 20 min. The contents of each well are removed and ¹²⁵I measured in a gamma counter.\nThe ability of 6B1 IgG4 to inhibit binding of TGFβ isoforms to receptors was measured in a radioreceptor assay as described in example 4."}},
  "data": [
    {"binder": "B1", "values": [
      {"measurement": "IC50 in TF1 neutralisation assay, 6B1 IgG4 from GS/NS0 cell line 5D8-2A6", "setting": "[1]", "value": 1.8, "unit": "nM"},
      {"measurement": "TF1 cell proliferation assay IC50 (nM IgG)", "setting": "[2]", "value": "> 100", "unit": "nM"},
      {"measurement": "TF1 cell proliferation assay IC50 (nM IgG)", "setting": "[3]", "value": 2, "unit": "nM"},
      {"measurement": "koff", "setting": "[4]", "value": 0.000336, "unit": "s⁻¹"},
      {"measurement": "kon", "setting": "[4]", "value": 384000, "unit": "M⁻¹ s⁻¹"},
      {"measurement": "amount of binding to 6B1 IgG4 surface, RU", "setting": "[5]", "value": 60.9, "unit": "RU"},
      {"measurement": "IC50", "setting": "[6]", "value": "> 400", "unit": "nM"}
    ]}
  ]
}
